The data set concerns T1, O=[N+]([O-])c1ccc(OP(=O)(O)O)cc1.
T1 construct: catalytic (phosphatase) domain CNA1–341 (PxCNα), His-tagged, expressed in E. coli
As to the kind of experiment: Michaelis-Menten kinetics of purified rPxCNα (Km). Particulars: Mn2+ ([…] MnCl2 in assay buffer). The data set is classed as biochemical, Plutella xylostella.

Chain of Calcineurin subunit A (PxCNA), catalytic domain PxCNα (Plutella xylostella) (chain, as listed by the source): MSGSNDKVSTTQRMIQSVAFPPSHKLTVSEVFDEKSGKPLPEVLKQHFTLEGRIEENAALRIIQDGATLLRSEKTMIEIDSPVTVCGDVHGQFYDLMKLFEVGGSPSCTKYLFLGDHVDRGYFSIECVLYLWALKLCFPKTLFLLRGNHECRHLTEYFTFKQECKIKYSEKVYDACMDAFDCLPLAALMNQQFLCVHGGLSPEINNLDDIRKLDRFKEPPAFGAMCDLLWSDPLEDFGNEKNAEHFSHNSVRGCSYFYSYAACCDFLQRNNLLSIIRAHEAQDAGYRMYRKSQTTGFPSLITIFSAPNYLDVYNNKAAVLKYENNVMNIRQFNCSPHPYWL

For orientation: Km means the substrate concentration at which the rate is half of its maximum. With “Calcineurin subunit A (PxCNA), catalytic domain PxCNα (Plutella xylostella)”, the Km was 4.6 mM.

The values are drawn from article PMC3821638, “Molecular Cloning and Characterization of the Calcineurin Subunit A from Plutella xylostella” (International Journal of Molecular Sciences, 2013).
